Values of other authors in patent US20240424090A1, “COMPOSITIONS AND METHODS FOR USE IN IMMUNOTHERAPY” (INSTITUT CURIE, priority 2021, published 2024).

How the values were obtained:
FCGRIIIA = FCGRIIIA (Homo sapiens, UniProt P08637)
FCGRIIA = molecular target: T1, FCGRIIA (Homo sapiens, UniProt P12318)
T1 sequence (P12318 34-317): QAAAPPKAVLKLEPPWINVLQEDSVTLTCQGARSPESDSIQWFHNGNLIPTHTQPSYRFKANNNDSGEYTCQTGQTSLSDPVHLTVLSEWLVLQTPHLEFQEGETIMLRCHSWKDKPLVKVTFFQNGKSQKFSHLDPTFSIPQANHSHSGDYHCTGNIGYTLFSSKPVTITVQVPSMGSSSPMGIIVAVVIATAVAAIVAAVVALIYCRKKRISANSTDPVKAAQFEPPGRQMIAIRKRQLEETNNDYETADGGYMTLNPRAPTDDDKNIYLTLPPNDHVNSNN

Chain of FCGRIIIA (P08637 17-254): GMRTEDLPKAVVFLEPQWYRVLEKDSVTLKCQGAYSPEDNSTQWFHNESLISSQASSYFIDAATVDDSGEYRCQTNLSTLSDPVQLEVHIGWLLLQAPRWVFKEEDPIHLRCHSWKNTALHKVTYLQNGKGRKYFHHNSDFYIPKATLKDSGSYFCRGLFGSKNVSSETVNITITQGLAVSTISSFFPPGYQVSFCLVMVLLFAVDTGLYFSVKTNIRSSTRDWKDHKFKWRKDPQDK

In the case of Tremelimumab: IgG2 anti-CTLA-4 antibody, the “binding to FCGRIIIA” value (FCGRIIIA) is listed as “not” and the “binding to FCGRIIA” value (FCGRIIA) is listed as “binds well”.
